The target in test [1] is S. cerevisiae RPA-SSL heterotrimer (Rfa1-F11S, I14S, F15L; Rfa2; Rfa3) (S. cerevisiae) (UniProt P22336).
For test [2], the target named is S. cerevisiae replication protein A (RPA), wild type heterotrimer (Rfa1, Rfa2, Rfa3) (S. cerevisiae) (UniProt P22336).
Sequence of S. cerevisiae replication protein A (RPA), wild type heterotrimer (Rfa1, Rfa2, Rfa3) (S. cerevisiae) (P22336 whole entry, chain 1 of 3): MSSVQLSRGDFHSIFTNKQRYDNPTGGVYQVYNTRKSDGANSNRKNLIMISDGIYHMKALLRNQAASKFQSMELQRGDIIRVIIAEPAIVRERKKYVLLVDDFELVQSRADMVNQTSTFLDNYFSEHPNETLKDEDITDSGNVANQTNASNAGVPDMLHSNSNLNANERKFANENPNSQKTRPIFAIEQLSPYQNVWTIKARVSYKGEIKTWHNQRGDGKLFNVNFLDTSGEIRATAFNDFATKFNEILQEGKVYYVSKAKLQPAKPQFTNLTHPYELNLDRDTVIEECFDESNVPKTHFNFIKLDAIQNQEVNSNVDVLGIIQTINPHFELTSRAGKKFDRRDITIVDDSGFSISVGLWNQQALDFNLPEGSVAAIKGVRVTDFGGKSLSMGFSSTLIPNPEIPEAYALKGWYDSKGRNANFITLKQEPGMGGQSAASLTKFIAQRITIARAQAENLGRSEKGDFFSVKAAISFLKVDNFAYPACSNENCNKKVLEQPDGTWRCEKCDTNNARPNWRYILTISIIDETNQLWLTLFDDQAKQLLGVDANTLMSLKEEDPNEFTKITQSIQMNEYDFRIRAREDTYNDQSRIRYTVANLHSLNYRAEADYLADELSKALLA
Sequence of S. cerevisiae replication protein A (RPA), wild type heterotrimer (Rfa1, Rfa2, Rfa3) (S. cerevisiae) (P26754 whole entry, chain 2 of 3, further chain): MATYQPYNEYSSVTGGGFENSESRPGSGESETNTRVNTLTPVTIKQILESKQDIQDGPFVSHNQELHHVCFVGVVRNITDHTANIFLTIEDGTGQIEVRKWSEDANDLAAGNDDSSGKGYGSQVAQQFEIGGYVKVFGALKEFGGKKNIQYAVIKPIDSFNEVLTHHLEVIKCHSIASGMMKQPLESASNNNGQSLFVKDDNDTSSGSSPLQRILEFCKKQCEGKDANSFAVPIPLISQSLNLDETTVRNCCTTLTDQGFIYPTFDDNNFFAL
Sequence of S. cerevisiae replication protein A (RPA), wild type heterotrimer (Rfa1, Rfa2, Rfa3) (S. cerevisiae) (P26755 whole entry, chain 3 of 3, further chain): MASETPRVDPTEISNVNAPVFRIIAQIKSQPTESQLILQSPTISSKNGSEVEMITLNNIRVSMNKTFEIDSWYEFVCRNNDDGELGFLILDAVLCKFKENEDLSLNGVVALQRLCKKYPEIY

Sequence of S. cerevisiae RPA-SSL heterotrimer (Rfa1-F11S, I14S, F15L; Rfa2; Rfa3) (S. cerevisiae) (P22336 whole entry F11S/I14S/F15L, chain 1 of 3): as the sequence (P22336 whole entry, chain 1 of 3) above, with F11S, I14S, F15L counted along it
Sequence of S. cerevisiae RPA-SSL heterotrimer (Rfa1-F11S, I14S, F15L; Rfa2; Rfa3) (S. cerevisiae) (P26754 whole entry, chain 2 of 3, further chain): as the sequence (P26754 whole entry, chain 2 of 3, further chain) above
Sequence of S. cerevisiae RPA-SSL heterotrimer (Rfa1-F11S, I14S, F15L; Rfa2; Rfa3) (S. cerevisiae) (P26755 whole entry, chain 3 of 3, further chain): as the sequence (P26755 whole entry, chain 3 of 3, further chain) above

In the case of “S. cerevisiae Dna2-E675A (nuclease-dead) (from UniProt P38859 1-1522) (enzyme)”, the ATPase activity (apparent kcat) of Dna2-E675A with ssDNA, stimulation by the RPA variant (48 nM) in test [1] and in test [2] was 2 fold each time.

(Values after paper PMC8586334.)
